Reference: the supplement of paper PMC12667976

B1: library; numbered along this chain (parent)
chain: MATDAALRRLLRLHRTEIAVAVDSAFPLLHALADHDVVPEDKFQETLHLKEKEGCPQAFHALLSWLLTQDSTAILDFWRVLFKDYNLERYGRLQPILDSFPKDVDLSQPRKGRKPPAVPKALVPPPRLPTKRKASEEARAAAPAALTPRGTASPGSQLKAKPPKKPESSAEQQRLPLGNGIQTMSASVQRAVAMSSGDVPGARGAVEGILIQQVFESGGSKKCIQVGGEFYTPSKFEDSGSGKNKARSSSGPKPLVRAKGAQGAAPGGGEARLGQQGSVPAPLALPSDPQLHQKNEDECAVCRDGGELICCDGCPRAFHLACLSPPLREIPSGTWRCSSCLQATVQEVQPRAEEPRPQEPPVETPLPPGLRSAGEEVRGPPGEPLAGMDTTLVYKHLPAPPSAAPLPGLDSSALHPLLCVGPEGQQNLAPGARCGVCGDGTDVLRCTHCAAAFHWRCHFPAGTSRPGTGLRCRSCSGDVTPAPVEGVLAPSPARLAPGPAKDDTASHEPALHRDDLESLLSEHTFDGILQWAIQSMARPAAPFPS

Variants of: B1
Assay: AIRE transcriptional activation functional score (insulin promoter-GFP; nonsense median 0, synonymous median 1) (normalised score); higher = higher AIRE activity (more reporter activation)
Conditions: with insulin promoter-GFP reporter in HEK293
Description: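 Deep mutational scan of full-length human AIRE (codon-optimized cDNA, DT-POPCode NNN libraries over three regions) integrated at a Bxb1 landing pad in HEK293 cells carrying an insulin core promoter-GFP reporter at a Flp-In site. Cells were sorted for the top 10% GFP about 14 days after transfection. Variant frequency log-ratios (select vs non-select, TileSeq) were rescaled so that the nonsense median is 0 and the synonymous median is 1, then averaged over biological replicates.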

AIRE transcriptional activation functional score: each site, then its substitutions
P56: I 0.82 | E -1.9 | C -0.173 | Q 0.746 | R 0.352 | V 0.829 | G 0.501 | A 0.549 | F 0.968 | K 1.48 | M -0.903 | N 0.0217 | T 0.544 | H 0.985 | S 0.484 | Y -0.155 | D -0.102 | W 0.16 | L -0.0629
E51: F -0.754 | L 0.248 | V 0.0642 | H 0.0447 | S -0.885 | T -0.0714 | P -0.179 | N -2.61 | Q 0.593 | M -1.54 | W -0.495 | Y -0.775 | D 0.852 | A 0.128 | C -0.0446 | G 0.279 | R 0.215 | I -1.54 | K 0.391
A58: P -0.271 | Q -0.509 | R 0.31 | W 0.0998 | C -0.141 | K -1.14 | S -0.0331 | H -0.263 | M -0.0857 | E -0.0545 | N -1.13 | L 0.0439 | D 0.158 | F 0.0934 | G -0.107 | T 0.166 | I -0.388 | Y -0.204 | V 0.221
C55: F 0.897 | G -0.175 | V 0.628 | T 1.49 | A -0.603 | Y 0.622 | N -0.172 | D 0.495 | L -0.0993 | W -0.244 | Q -0.411 | P 0.602 | S -0.196 | R 0.308 | H 0.145 | I 1.19
F59: I 0.997 | L 0.0546 | H 0.308 | E 0.561 | K 0.387 | C -0.268 | M 0.656 | A 0.101 | D 0.139 | G 0.194
L49: R 1.04 | H -0.538 | A 0.327 | D -0.689 | Q -0.302 | W -0.0359 | V 0.492 | C -0.191 | P -0.173 | T -0.364 | G -0.0766 | F 0.262 | Y 0.268 | M 0.566 | S -0.858 | I -0.275 | N -0.822
Q44: Y 0.0762 | L 0.658 | S 0.392 | W 0.23 | M -0.749 | P -0.185 | V 0.735 | G 0.0554 | K 1.33 | N 0.983 | D 0.948 | A 0.712 | H -0.545 | E -0.441 | F 1.98 | C -0.0407 | T 0.288 | I 0.916 | R 0.783
H48: Q 1.5 | L 0.44 | V 1.53 | T 0.372 | N 0.738 | Y 1.23 | R 1.64 | C 0.651 | S -0.318 | G 0.181 | P -0.897
G54: L -0.0223 | E 0.772 | D 0.773 | W 0.0658 | A -0.977 | H 0.133 | I 0.416 | S -0.808 | T -1.14 | Q -0.474 | N -1.62 | Y 0.671 | V 0.385 | C 0.165 | R -0.991 | P -0.123 | M 0.663 | F -0.19
K42: H 0.0173 | N 0.98 | S 0.172 | E -0.598 | F 0.0107 | G -0.403 | D -1.69 | P -0.0735 | A -0.323 | L 0.0963 | R -0.281 | Q 0.53 | M 0.538 | I 0.472 | Y -0.464 | W -0.0922 | V 0.822 | C -0.000636 | T -0.0654
E45: G 0.0251 | K 0.348 | D 0.278 | R -0.0981 | C -2.39 | H -0.452 | F 0.576 | S -0.772 | W 1.17 | M -1.43 | V 0.134 | I -1.78 | L 0.233 | Q 1.17 | A -0.429 | T -0.232 | Y -0.129
F43: Q -0.593 | E -1.08 | G 0.413 | W 0.0722 | H -1.42 | M 0.757 | V 0.36 | C 0.163 | A -0.325 | S 0.0986 | T -0.219 | R 0.134 | Y 0.108 | L 0.0431 | D -0.408 | P 0.556 | I -0.197
Q57: S 0.217 | L 1.41 | C -0.141 | E 0.685 | P -0.527 | A 1.25 | T 0.369 | Y 0.535 | G -0.774 | K 1.12 | V 0.739 | R 0.643 | M -0.643 | F 0.269 | W -0.29 | I 0.761 | N -0.0973 | H -0.168
D41: Y 1.79 | S 0.72 | L 0.547 | H -1.75 | T 0.827 | G 0.147 | F 0.468 | I -1.3 | C 1.39 | P 0.148 | K -1.32 | R 0.0782 | N 1.79 | A 1.59 | E 1.17 | V 0.0716 | W 0.551
K50: I 0.717 | S 2.07 | V 0.73 | F -0.139 | L 0.404 | A -0.833 | T 0.51 | Y -0.654 | M 0.465 | N 1.59 | R 0.745 | H 0.46 | C 0.454 | P -0.341 | G 1.42 | W 0.149 | E 0.64 | D 1.78
L47: G 0.313 | C -0.421 | W -0.717 | V 0.302 | S 0.462 | A 0.636 | F 0.568 | R -0.624 | T -0.713 | I -0.62 | K -1.23
T46: V -0.0333 | K -3.42 | H 0.478 | N -0.328 | M 2.55 | F -1.2 | A 0.0907 | C 0.841 | D -0.445 | L -0.561 | R 0.389 | I 0.403 | G -0.878 | S 0.455 | E 1.4 | Y 0.503
E40: N -0.324 | S 0.167 | T -0.598 | I 0.121 | Q 0.577 | P 0.61 | W -0.133 | Y -0.301 | H -0.15 | V 0.0752 | R -0.956 | L 0.272 | K -0.28 | G -0.121 | F -0.259
E53: H 0.435 | M 0.544 | A 1.12 | D 0.593 | G -0.0905 | T 1.37 | L 1.14 | I 1.49 | F 0.611 | Y -0.0622 | C 1.45 | S 0.701 | V 1.36 | R -0.133 | Q 0.948 | P -0.371 | K 1.55 | W 1.2 | N 0.151
K52: N -0.178 | P -0.13 | V 1.38 | F 0.16 | D 0.601 | Q -0.353 | M 2.46 | L 1.11 | Y 0.198 | T 1.21 | A 1.01 | G 0.435 | I 0.794 | S 0.883 | E 0.994 | W -0.861 | R 0.664 | H -0.455 | C -0.346
